For experiment [1], the target named is T1, Human CD38 (human, UniProt P28907 1-300). The experiment can be described thus: cell-based or functional assay.
The target in experiment [2] is T1, Human CD38. The experiment can be described thus: cell binding assay, apparently on OPM2 myeloma cells (method cited from Huber et al 2003).

B1: ^213Bi-anti-CD38-MAb (antibody, V domains shown)
VH: QVQLVESGGGLVQPGGSLRLSCAASGFTFSSYYMNWVRQAPGKGLEWVSGISGDPSNTYYADSVKGRFTISRDNSKNTLYLQMNSLRAEDTAVYYCARDLPLVYTGFAYWGQGTLVTVSS
VL: DIELTQPPSVSVAPGQTARISCSGDNLRHYYVYWYQQKPGQAPVLVIYGDSKRPSGIPERFSGSNSGNTATLTISGTQAEDEADYYCQTYTGGASLVFGGGTKLTVLG
As to B1, in experiment [1], the “γH2AX foci per cell (DNA double-strand breaks) 0.5 h after treatment, OPM2 cells compared to ARH77 cells” value was roughly 2.5 fold.

B2: CHX-A″-DPTA-anti-CD38-MAb (antibody, V domains shown)
VH: QVQLVESGGGLVQPGGSLRLSCAASGFTFSSYYMNWVRQAPGKGLEWVSGISGDPSNTYYADSVKGRFTISRDNSKNTLYLQMNSLRAEDTAVYYCARDLPLVYTGFAYWGQGTLVTVSS
VL: DIELTQPPSVSVAPGQTARISCSGDNLRHYYVYWYQQKPGQAPVLVIYGDSKRPSGIPERFSGSNSGNTATLTISGTQAEDEADYYCQTYTGGASLVFGGGTKLTVLG
notes: Anti-CD38-MAb MOR03087 (= MOR202) covalently coupled to SCN-CHX-A″-DTPA; also called Chelated anti-CD38-MAb; CHX-A″-DTPA conjugate of MOR03087 (MOR202)
In the case of B2, the EC50 (as a rule, the midpoint of the concentration-response curve) in experiment [2] came to 16.4 nM.
